From patent US20250066446A1, “FUSION PROTEINS FOR THE TREATMENT OF CARDIOMETABOLIC DISEASES” (Shattuck Labs, Inc., priority 2022, published 2025)

Assays:
[1] = molecular target: T1, recombinant human Activin A (Homo sapiens, UniProt P08476); test: MSD platform-based binding assay to plate-bound Activin A; conditions: 3× serial dilutions of culture supernatants of HEK293T cells transfected with mmRNA constructs
T1 sequence (P08476 311-426): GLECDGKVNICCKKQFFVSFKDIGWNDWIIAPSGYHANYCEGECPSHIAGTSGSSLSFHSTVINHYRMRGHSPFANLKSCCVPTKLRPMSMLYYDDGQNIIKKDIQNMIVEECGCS
Experimental: (§1) The binding by a recombinant human ACVR2B-Fc fusion protein to activin A (also known as Inhibin beta A) was characterized using a Meso Scale Discovery (MSD) platform-based assay. Briefly, Activin A was coated on a plate and 8× serial dilutions of the purified recombinant human ACVR2B-Fc fusion protein were also added in a series of wells. The protein captured by the plate-bound Activin A was detected using an anti-human Fc antibody and a SULFO-TAG conjugated secondary antibody.
(§2) The binding to Activin A by the GLP-1-Fc-ACVR2B fusion protein produced using the mmRNA constructs was investigated using a Meso Scale Discovery (MSD) platform-based assay. Briefly, HEK293T cells were transfected with each mRNA construct using lipofectamine 2000, and culture supernatants were collected after 48 hours. Activin A was coated on a plate, and 3× serial dilutions of the culture supernatants were added to the plate for capture by the plate-bound Activin A. The protein captured by the plate-bound Activin A was detected using an anti-human Fc antibody and a SULFO-TAG conjugated secondary antibody. The MSD signals generated by the culture supernatants of HEK293T cells transfected with different mmRNA constructs were plotted as a line graph.

recombinant human GDF-8 = molecular target: T2, recombinant human GDF-8 (Homo sapiens, UniProt O14793); test: MSD platform-based binding assay to plate-bound GDF-8; conditions: 3× serial dilutions of culture supernatants of HEK293T cells transfected with mmRNA constructs
T2 sequence (O14793 267-375): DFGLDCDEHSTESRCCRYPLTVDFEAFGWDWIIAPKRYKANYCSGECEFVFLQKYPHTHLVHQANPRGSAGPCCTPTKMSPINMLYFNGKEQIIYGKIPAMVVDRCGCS
Experimental: as §1, with “GDF-8” for “activin A”, “myostatin)” for “Inhibin beta A)”, “GDF-8” for “Activin A”
as §2, with “GDF-8” for “Activin A”, “GDF-8.” for “Activin A.”

- binding to Activin A [1]: binds to the human Activin A
- binding to GDF-8 (recombinant human GDF-8): binds to the human GDF-8
B1: GLP-1-Fc-ACVR2B chimeric protein: GLP-1 fused to ACVR2B extracellular domain via a hinge-CH2-CH3 Fc domain derived from IgG1; SEQ ID NO: 154 (protein)
chain: SGRGEAETRECIYYNANWELERTNQSGLERCEGEQDKRLHCYASWRNSSGTIELVKKGCWLDDFNCYDRQECVATEENPQVYFCCCEGNFCNERFTHLPEAGGPEVTYEPPPTAPTLLT
